These are literature values, as cited in article PMC7723891.

Usually Kd stands for the constant that tells how readily two partners part at equilibrium.

The data set has as its target Spike RBD (SARS-CoV-2) (UniProt P0DTC2). The data set can be described thus: Biacore. For orientation: In SPR one partner is held on a chip, and binding of the other changes the refractive index at the surface.

As for CD147 (from UniProt P35613), the Kd is 185 nM.
